Experimental findings from the supplement of paper PMC12042874 are described below.

A short description of the data set: amyloid nucleation score (Sup35N fusion, yeast selection) (log enrichment); library NNK3; higher = more nucleation; inactive = no reads after selection. In short, it runs like this: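 The nucleation score, computed with DiMSum, is the log enrichment of output over input reads, centred on the mode score of non-aggregating sequences. Sequences with under 100 input reads were dropped. Reads were generated by Illumina sequencing of plasmid inserts from psi-negative yeast with Sup35N fused to peptides of 20 random codons, induced with 100 μM copper sulfate for 24 hours and grown 7 days at 30°C on medium lacking adenine and uracil.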

± gives the uncertainty stated by the source.

Take SHGGYACTSLIMTLIPLLYM: the amyloid nucleation score entry is “inactive”.

For the substance LQMYWIIV, the amyloid nucleation score result is “inactive”.

Consider NRLCFISAMCNVTYWVICNH, for which the amyloid nucleation score entry is “inactive”.

CSNLVLP came in with an amyloid nucleation score of -0.765 ± 1.4.

For IRVSN, the amyloid nucleation score entry was “inactive”.

As to WYRMLFIRSKDSMDKMPIFL, the amyloid nucleation score entry is “inactive”.

As to FNMCLASQAVIADLWVVFSW, the amyloid nucleation score was -0.054 ± 1.3.

With YMLTEFYLFPDRILRHRRTD, the amyloid nucleation score entry was “inactive”.

Take REVRNWRERVCQMRVLVVMC: the amyloid nucleation score entry is “inactive”.

Regarding SLKLRCLLGTSKVVMVDLFV, the amyloid nucleation score entry was “inactive”.

For LSKHEAGTCRLVNDRTHYKA, the amyloid nucleation score result is “inactive”.

On to RTFMYMWRSEIF, for which the amyloid nucleation score result was “inactive”.

NLLDYTVIVNSLSFVDSKSS: the amyloid nucleation score result is “inactive”.

With SMSGWCVETFLRQEM, the amyloid nucleation score entry is “inactive”.

With SFITIVIVSVGMRSLVLHRL, the amyloid nucleation score result is “inactive”.

Regarding AVLCVCIHRLPFYFPPLLKM, the amyloid nucleation score entry is “inactive”.

DQSNSSEGILCYNLCVLMTE gave an amyloid nucleation score of 2.43 ± 0.072.

Regarding FDSDRCIMCLTHLWILWGLR, the amyloid nucleation score entry was “inactive”.

With ITGGTPCGITTVWQKGAMG, the amyloid nucleation score entry was “inactive”.

The substance YRVVC showed an amyloid nucleation score of -0.543 ± 1.5.

Take GNVQFCRFFFDMSSLHDIMT: the amyloid nucleation score result was “inactive”.

With TGLNGLRVLYSMRRPGKV, the amyloid nucleation score result was “inactive”.

For RSTWMAIWKERYMQTGFL, the amyloid nucleation score entry is “inactive”.

Consider RRYVSSDFFLSAWWTVS, for which the amyloid nucleation score entry was “inactive”.

As for LLPAI, the amyloid nucleation score entry was “inactive”.

Consider ILGIRYVIRINFLTRVRIHN, for which the amyloid nucleation score entry is “inactive”.

Take CLGYRFVWGVPFVKFDRIIW: the amyloid nucleation score result is “inactive”.

Consider NIISR, for which the amyloid nucleation score is -0.184 ± 0.81.

QIQGMNSQKRLRLKKP: the amyloid nucleation score entry was “inactive”.

For the substance YLVMRSKYLYRFYAMVLKDL, the amyloid nucleation score entry was “inactive”.

For the substance GKDKLEGKEGGVSCDGNLRP, the amyloid nucleation score result is “inactive”.

Consider WTYTKVWIWS, for which the amyloid nucleation score entry is “inactive”.

Regarding RWVNWLLYDKV, the amyloid nucleation score entry is “inactive”.

YITNVQVIGMMVINSNHKGV came in with an amyloid nucleation score of 3.42 ± 0.058.

Take MWWAINCWSSKFHIYSIDTY: the amyloid nucleation score result was “inactive”.

YIITFGSMTCLVVTGNPAIV yielded an amyloid nucleation score of -0.039 ± 0.66.

Regarding RLRVG, the amyloid nucleation score result is “inactive”.

In the case of VLLVLVI, the amyloid nucleation score entry is “inactive”.

In the case of DYYIAPRVPYHVTTWNKDYL, the amyloid nucleation score entry was “inactive”.

For MLFPPLLGNWLDSGTTQVRR, the amyloid nucleation score entry is “inactive”.

Turning to FWGMLVEYLVNSQCYIKFE, the amyloid nucleation score result was “inactive”.

For the substance CPTPGWTLKRVGRVYECRG, the amyloid nucleation score entry is “inactive”.

For the substance IEFLFMYTWWAVLNSGSK, the amyloid nucleation score stood at 0.999 ± 0.2.

Take LLSFLTVRLCVFRTYFW: the amyloid nucleation score entry was “inactive”.

For HGTAGLPK, the amyloid nucleation score was determined as 0.807 ± 0.14.

Regarding TVANTNRTALNLMLEMGLGL, the amyloid nucleation score result was “inactive”.

With HRIVTPPNDLWGVWASTV, the amyloid nucleation score result is “inactive”.

Regarding SVDFVIPGSVKSVRFVVELV, the amyloid nucleation score result was “inactive”.

As to GKDSGDCTRIRLGV, the amyloid nucleation score turned out to be 1.2 ± 0.14.

With LGDDVFSLAFGDNFKDHKFH, the amyloid nucleation score result is “inactive”.

As for IIFLQIPNLFMGNKTRQKGA, the amyloid nucleation score result was “inactive”.

On to FLQECRDCQGTVRNKSSAP, for which the amyloid nucleation score result is “inactive”.

For the substance LKPQHSSGGSLSRMIYRPFL, the amyloid nucleation score worked out at 2.18 ± 0.088.

Turning to RLVFNLGGYFLKWCIDCFIR, the amyloid nucleation score result was “inactive”.
